Read-outs that look alike come from different tables or passages of the source.
B1: DLK1 A05 (monoclonal scFv-phage) (scFv, V domains shown)
VH: QMQLVESGGGLVQPGRSLRLSCAASGFTFDEHAMHWVRQAPGKGLEWVSGINWNSGKTGYADSVKGRFTISRDNGKNSLYLQMNSLRAEDTAVYYCAKSGGYGGNTNWYFDLWGRGTLVTVSS
VL: QFVLTQPPSVSGAPGQNVTISCIGTSSNIGVGYDVHWYQQVPGTAPKLLVYGNNNRPSGVPDRFSGSKSGTSASLAITGLQAEDEADYYCQSYDSRLGVVFGGGTKLTVL
B2: DLK1 A04 (monoclonal scFv-phage) (scFv, V domains shown)
VH: QVQLVESGAEVKKPGASVKVSCKASGYTFKDYAIHWVRQAPGQRLEWMGWINPGSGNTKYSHNFEGRVILTRDASANTAYLELPSLRSEDTAVYYCARSVSAYGSNYFDPWGQGTLITVSS
VL: DIQMTQSPSSLSASVGDRVTITCQASQDISNYLNWYQQKPGKAPKLLIYSTSNLQSGVPSRFSGSGSGTDFTLTISSLQPEDFATYYCQQLNSYPLTFGGGTKVDIK
B3: ACVR2B A07 (monoclonal scFv-phage) (scFv, V domains shown)
VH: QLVESGGGLVRPGRSLTLSCTASGFTFNDYAMHWVRQAPGKGLEWVSGISWNTNSKAYADSVKGRFIISRDNAKNSLYLEMNSLRAEDTAVYYCVRDGGRFYYGLDVWGQGTSVTVSS
VL: DIVMTQTPVSSPVTLGQPASISCRSSQSLIHSDGNTYLSWIQQRPGQPPRLLIYKISNRFSGVPDRFSGSGAGTDFTLKISRVEAEDVGVYYCAETSQVPHTFGQGTKVEIK
modifications: scFv linker not given
B4: DLK1 B09 (monoclonal scFv-phage) (scFv, V domains shown)
VH: QMQLVESGGRLVRPGGSLRLSCAASGFPFTSYAMNWVRQTPGKGLEWVSTITATSGKTYYADSVKGRFTISRDNSRNTLFLQMNSLRAEDTAVYYCVRGESCSGGACSDFDYWGQGALVTVSS
VL: QLVLTQPASVSGSPGQSVTISCTGTSSDIGRYNRVSWYQHHPGKAPKLILNDVTTRPSGFSNRFSGSKSGNTASLTISGLQAEDEADYSCGSYAGSYTYVFGTGTKVTVL
B5: DLK1 A10 (monoclonal scFv-phage) (scFv, V domains shown)
VH: QVQLVESGGGLVQPGRSLRLSCAASGFTFDDYAMHWVRQAPGKGLEWVSGISWNSGSIGYADSVKGRFTISRDNAKNSLYLQMNSLRAEDTAVYYCARGPGLATGKGYADYWGQGTLVTVSS
VL: DIQMTQSPSSVSASVGDRVTITCRASQRISSWLAWYQQKPGRAPKLLIHSASTLHNGVPSRFSGSASGTDFTLTISSLQPEDYAIYYCQQGHSFPYTFGQGTKLEIK
B6: DLK1 H06 (monoclonal scFv-phage) (scFv, V domains shown)
VH: QVQLVQSGGGLIQPGGSLRLSCAASGFTFSLYGMSWVRQAPGKGLEWVSSIPGSGTRTHYADSVKGRFTISRDNSKNTLFLQMNSLRAEDTAVYYCAKSTAYLFDYWGPGTLVTVSS
VL: DIQMTQSPATLSLSPGERATLSCRASQSIRHYLAWYQQKPGQAPRLLIHGASSRATGIPDRFSGSGSGTDFTLTISRLEPEDFAVYYCQHYGSPLHSFGPGTKVEIK
B7: human antibody F08 (full-length IgG) (antibody, V domains shown)
VH: VQLVESGGGLVQPGGSLRLSCAASGFTFSDHYMDWVRQAPGKGLEWVGRTRNKANSYTTEYAASVKGRFTISRDDSKNSLYLQMNSLRAEDTAVYYCTKGAWLDYWGQGTLVTVSS
VL: IQMTQSPSAMSASVGDRVTITCRASQGISNYLAWFQQKPGKVPKRLIYGASSLQGGVPSRFSGSGSGTEFTLTITSLQPEDFATYFCLQHKSYPLTFGPGTKVEIK
modifications: constant regions not given
B8: DLK1 H12 (monoclonal scFv-phage) (scFv, V domains shown)
VH: QVQLVQSGGGLVKPGGSLRLSCAASEFTFSDYYMSWVRQAPGKGLEWLSYISGSGITTYYADSVKGRFTISRDNGKKSLYLEMNSLRAEDTAVYYCARLQGHCSGGACSNWFDAWGQGTLITVSS
VL: DIQMTQSPSSLSASVGDRLTITCRASQSILTYLNWYQQKPGKAPKLLIYAASSLQRGVPSRFSGSGSGTDFTLTISGLQPEDFATYYCQQGYGTPYTFGQGTKVDIK

Tests used:
Fc [1] = assay: phage ELISA, Fc coated
[2] = target: DLK1-Fc fusion protein (human); assay: phage ELISA, DLK1 coated
[3] = target: anti-myc antibody coated on the ELISA plate; assay: phage ELISA, anti-myc coated
[4] = target: DLK1-Fc fusion protein (human); assay: phage ELISA; OD on DLK1 divided by OD on a-myc
Fc [5] = assay: phage ELISA, Fc coated; remark: listed apart in the source
[6] = target: T1, ACVR2B-Fc fusion protein (human) (UniProt Q13705); assay: phage ELISA, ACVR2B coated
T1 sequence: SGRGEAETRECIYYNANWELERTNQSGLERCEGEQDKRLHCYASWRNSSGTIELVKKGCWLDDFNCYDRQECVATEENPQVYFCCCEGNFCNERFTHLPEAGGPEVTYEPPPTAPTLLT

[7] = target: T1, ACVR2B-Fc fusion protein (human); assay: phage ELISA, ACVR2B coated; remark: listed apart in the source
[8] = target: anti-myc antibody coated on the ELISA plate; assay: phage ELISA, anti-myc coated; remark: listed apart in the source
[9] = target: T1, ACVR2B-Fc fusion protein (human); assay: phage ELISA; OD on ACVR2B divided by OD on a-myc
[10] = target: T1, ACVR2B-Fc fusion protein (human); assay: SPR (ProteOn XPR36)

Sequence of DLK1-Fc fusion protein (human) (chain, as listed by the source limits assumed, form in doubt): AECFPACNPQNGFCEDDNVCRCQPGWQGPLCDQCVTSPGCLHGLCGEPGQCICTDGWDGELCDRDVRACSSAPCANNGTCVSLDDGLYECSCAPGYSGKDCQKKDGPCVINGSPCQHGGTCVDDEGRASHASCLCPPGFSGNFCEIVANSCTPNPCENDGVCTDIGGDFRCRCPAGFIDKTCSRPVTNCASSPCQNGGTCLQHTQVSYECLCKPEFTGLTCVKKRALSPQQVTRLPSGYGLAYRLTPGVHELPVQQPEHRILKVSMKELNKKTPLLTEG

| Binder | OD490 (Fc [1]) | OD490 [2] | OD490 [3] | Ratio [4] | OD490 (Fc [5]) | OD490 [6] | OD490 [7] | OD490 [8] | Ratio [9] | Kd [10] | koff [10] | kon [10] |
| --- | --- | --- | --- | --- | --- | --- | --- | --- | --- | --- | --- | --- |
| B1 | 0.0704 OD | 2.99 OD | 0.784 OD | 3.81 | – | – | – | – | – | – | – | – |
| B2 | 0.0791 OD | 3.12 OD | 0.507 OD | 6.15 | – | – | – | – | – | – | – | – |
| B3 | 0.0443 OD | – | 0.213 OD | – | 0.044 OD | 2.65 OD | 2.66 OD | 0.213 OD | 12.5 | – | – | – |
| B4 | 0.0786 OD | 2.33 OD | 0.0918 OD | 25.3 | – | – | – | – | – | – | – | – |
| B5 | 0.0828 OD | 2.83 OD | 1.28 OD | 2.21 | – | – | – | – | – | – | – | – |
| B6 | 0.0766 OD | 2.13 OD | 0.863 OD | 2.47 | – | – | – | – | – | – | – | – |
| B7 | – | – | – | – | – | – | – | – | – | 4.05 pM | 1.32e-05 s⁻¹ | 3.25e+06 M⁻¹ s⁻¹ |
| B8 | 0.0539 OD | 3.2 OD | 0.674 OD | 4.75 | – | – | – | – | – | – | – | – |
